In article PMC10765524 (2023):

Key:
Assay in all cases: FP
[1] = biological target: FAM_(67-120)S120C (UniProt Q96E09 67-120, S120C, Alexa Fluor 488 C5 Maleimide label)
[2] = biological target: T1, ARPP19(S10C) labelled with Alexa Fluor 488 (ARPP19-tracer) (UniProt P56211 1-112, S10C, Alexa Fluor 488 C5 Maleimide label)
T1 sequence: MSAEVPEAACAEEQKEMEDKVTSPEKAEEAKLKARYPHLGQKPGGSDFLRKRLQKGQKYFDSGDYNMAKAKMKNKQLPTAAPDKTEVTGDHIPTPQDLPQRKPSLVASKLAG

[3] = biological target: FAM122AID(S120C) (FAM122AID-tracer) (UniProt Q96E09 29-120, S120C, Alexa Fluor 488 C5 Maleimide label (fluorescence polarization assay))
[4] = biological target: T2, ARPP19 S104A as used in the fluorescence polarization assay (UniProt P56211 1-112, S104A)
T2 sequence: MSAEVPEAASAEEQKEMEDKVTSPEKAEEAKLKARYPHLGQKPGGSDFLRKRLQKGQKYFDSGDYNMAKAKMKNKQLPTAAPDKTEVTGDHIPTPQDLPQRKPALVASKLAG

- Kd [1]: 827 nM
- Kd [2]: 323 nM
- Kd [3]: 837 nM
- Kd [4]: 326 nM
B1: B55 loopless (B55LL) (domain or fragment)
chain: MAGAGGGNDIQWCFSQVKGAVDDDVAEADIISTVEFNHSGELLATGDKGGRVVIFQQEQENKIQSHSRGEYNVYSTFQSHEPEFDYLKSLEIEEKINKIRWLPQKNAAQFLLSTNDKTIKLWKISNGEASPRRIFANAHTYHINSISINSDYETYLSADDLRINLWHLEITDRSFNIVDIKPANMEELTEVITAAEFHPNSCNTFVYSSSKGTIRLCDMRASALCDRHSKLFEEPEDPSNRSFFSEIISSISDVKFSHSGRYMMTRDYLSVKIWDLNMENRPVETYQVHEYLRSKLCSLYENDCIFDKFECCWNGSDSVVMTGSYNNFFRMFDRNTKRDITLEASRENNKPRTVLKPRKVCASGKRKKDEISVDSLDFNKKILHTAWHPKENIIAVATTNNLYIFQDKVN
